{"source": "patent US8450118B2", "about": "“Method for detecting binding interactions between membrane proteins and analytes in a homogenous assay” (Molecular Sensing, Inc., priority 2009, dated 2013)", "origin": "cited, not measured here", "target": "T1, mouse B1 receptor (Mus musculus, UniProt Q61125)", "T1 sequence (Q61125 1-334)": "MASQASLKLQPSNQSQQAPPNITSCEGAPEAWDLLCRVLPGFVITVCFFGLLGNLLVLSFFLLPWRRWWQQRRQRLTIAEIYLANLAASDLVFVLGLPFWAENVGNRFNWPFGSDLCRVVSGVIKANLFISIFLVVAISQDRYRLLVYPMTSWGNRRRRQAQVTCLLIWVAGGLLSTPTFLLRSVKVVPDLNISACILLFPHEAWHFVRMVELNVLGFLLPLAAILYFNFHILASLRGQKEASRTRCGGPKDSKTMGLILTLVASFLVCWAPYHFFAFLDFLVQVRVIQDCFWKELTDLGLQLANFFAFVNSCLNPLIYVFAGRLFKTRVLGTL", "data": [{"substance": "BK(1-8): peptide generated by removal of the C-terminal arginine of bradykinin by carboxypeptidases; selective ligand at the B1 receptor (RPPGFSPF; Bradykinin; UniProt P01042 381-388, looked up, fragment)", "values": [{"measurement": "fold higher affinity for BK(1-8) compared to Lys-BK(1-8)", "result": "2-3 fold"}]}]}
